These results are taken from US10227617B2, “Sequestration of carbon dioxide with hydrogen to useful products” (UNIVERSITY OF GEORGIA RESEARCH FOUNDATION, INC., priority 2012, dated 2019).

In brackets after ≈: the same amount, converted by molar mass.

The test system of series [1] is CC(C)(COP(=O)(O)OP(=O)(O)OC[C@H]1O[C@@H](n2cnc3c(N)ncnc32)[C@H](O)[C@@H]1OP(=O)(O)O)[C@@H](O)C(=O)NCCC(=O)NCCSC(=O)CCCO. As to the kind of experiment: 4-hydroxybutyryl-CoA dehydratase (Msed_1321), coupled spectrophotometric assay. The series is classed as biochemical, Metallosphaera sedula. The settings on record: other: Msed_1321, 70° C. An excerpt: A polypeptide having 4-hydroxybutyryl-CoA dehydratase activity means the polypeptide catalyzes the conversion of 4-hydroxybutyryl-CoA to crotonyl-CoA. The 4-hydroxybutyryl-CoA dehydratase activity of a polypeptide may be determined by routine methods known in the art. An example of such a polypeptide includes an amino acid sequence encoded by coding sequence Msed_1321 of Genbank accession NC_009440 and disclosed at SEQ ID NO:15.
Heterologous expression of M. sedula genes in E. coli. Msed_0406, Msed_1321, Msed_0399, and Msed_0656 were amplified from genomic DNA using primers from IDT Technologies (Coralville, Iowa). Msed_0406 was cloned into pET46-Ek/LIC with an N-terminal His6 tag, as described in Example 1. Msed_1321 was cloned with an N-terminal His6 tag into a modified pETA vector, into which the anaerobic hya promoter from E. coli had been inserted to allow for anaerobically-regulated expression (Sun et al., 2010. PLoS One 5:e10526). Msed_0399 was cloned into pET21b without a His-tag, and Msed_0656 was cloned into pCDF-Ek/LIC with an N-terminal His6 tag. All four constructs were individually cloned into NovaBlue GigaSingles E. coli competent cells and selected by growth on LB-agar supplemented with antibiotic. Sequences were confirmed by Eton Biosciences, Inc. (Durham, N.C.). Next, the plasmids were transformed into E. coli Rosetta 2 (DE3) cells for protein expression. Rosetta strains containing pET46-0406, pET21b-0399, and pCDF-0656 were grown and expressed aerobically at 37° C. for 16 h in Studier's auto-inducing medium ZYM-5052 (Studier, 2005. Protein Expression and Purification 41:207-234). Rosetta cells containing pETA-1321 plasmid were grown in a 2 L Applikon bioreactor (37° C., 800 rpm, pH 6.7, 0.5 slpm air) in Studier's non-inducing medium ZYM-505 with 0.5 mM FeCl3. […]
4-hydroxybutyryl-CoA dehydratase (Msed_1321). […] Enzyme activity was measured […] in a coupled spectrophotometric assay at 70° C. […]

The subject of series [2] is O=C(O)CCCO. The series is described as follows: acyl-CoA ligase activity of mutant Msed_1353-G424, discontinuous DTNB assay. The following applies: other: Msed_1353-G424, 75° C., pH 7.9. The series is classed as biochemical, Metallosphaera sedula. An excerpt: In one embodiment, an example of a polypeptide having 4-hydroxybutyrate:CoA ligase activity is an amino acid sequence encoded by coding sequence Msed_1353 of Genbank accession NC_009440 and disclosed at SEQ ID NO:18, provided that the amino acid at residue 424 is not the tryptophan present in a wild type Msed_1353. In one embodiment, the amino acid at residue 424 is alanine, valine, leucine, isoleucine, or glycine. In one embodiment, the amino acid at residue 424 is alanine, valine, leucine, glycine. In one embodiment, the amino acid at residue 424 is glycine. The amino acid sequence disclosed at SEQ ID NO:18 includes the substitution of glycine for tryptophan. Another example is a polypeptide having structural similarity to the amino acid sequence SEQ ID NO:18, provided the amino acid at residue 424 is not tryptophan.
Two assays were used to measure ligase activity, one spectrophotometric and one using high-performance liquid chromatography (HPLC). A discontinuous assay was used to measure substrate-dependent disappearance of CoA at 75° C. The reaction mixture (600 μl) contained 100 mM MOPS-KOH (pH 7.9), 5 mM MgCl2, 2.5 mM ATP, 0.15 mM CoA, and purified enzyme. At each time point, 80 μl of reaction mixture was added to 80 μl cold 5,5′-dithiobis-(2-nitrobenzoic acid) (DTNB). A time point (0 min) was taken before heating. The reaction mixture was incubated for 2 min at 75° C., followed by addition of substrate. Additional time points were taken at 30, 60, 90, 120, and 180 sec after addition of substrate. Absorbance was measured at 412 nm to determine free CoA concentration, based on the concentration of 2-nitro-5-thiobenzoate dianion (NTB^2−) (ε412=14,150 M^−1 cm^−1) (Hawkins et al., 2011, ACS Catal. 1, 1043-1050, Riddles et al., 1983, Methods in Enzymology 91, 49-60). Enzymes were kinetically characterized by varying the concentration of the […] substrate from 0.05 mM to 12 mM, while the other substrate concentrations were held constant. Measurements for specific activity were taken under saturating substrate concentrations (10 mM). Formation of the CoA ester was also confirmed using HPLC (Waters). The reaction mixture (0.15 ml) contained 100 mM potassium phosphate (pH 7.9), 10 mM MgCl2, 2 mM ATP, 0.5 mM CoA, 10 mM substrate, and purified enzyme. The reaction was incubated for 3 min at 75° C., quenched with 15 μl 1M HCl, filtered with a 10 kDa spin column (Amicon YM-10) to remove the protein, and loaded onto a reversed-phase C18 silica-based column (Shodex C18-4E, 4.6×250 mm). The mobile phase was 50 mM sodium phosphate buffer (pH 6.7) with 2% methanol.
M. sedula genes encoding acyl-CoA synthetases were amplified from genomic DNA using primers synthesized by Integrated DNA Technologies (Coralville, Iowa). […]

For series [3] the following is noted: 70° C and 1 atm; cited from earlier work.
Series [4] can be described thus: CoA synthetase assay (DTNB), substrate propionate. The series is classed as biochemical. The following applies: saturating substrate concentrations.
The nature of series [5]: 4-hydroxybutyrate-CoA synthetase assay (DTNB; HPLC confirmation). The series is classed as biochemical. As to the method: A time point (0 min) was taken before heating.
The soluble, heat-treated lysate was loaded onto the column with binding buffer (50 mM sodium phosphate, 300 mM NaCl, 20 mM imidazole, pH 7.4) and the his-tagged enzyme removed with elution buffer (50 mM sodium phosphate, 300 mM NaCl, 500 mM imidazole, pH 7.4).

Substrate in series [6]: CC(=O)O
As to the kind of experiment: purified protein, by the assay type. The settings on record: other: Msed_0406, 75° C., pH 7.9; 75.0 °C.

Substrate in series [7]: CCC(=O)O
The series is described as follows: purified protein, by the assay type. The settings on record: other: Msed_0406, 75° C., pH 7.9; 75.0 °C.

Substrate in series [8]: CCCC(=O)O
As to the kind of experiment: purified protein, by the assay type. The settings on record: other: Msed_0406, 75° C., pH 7.9; 75.0 °C.

Substrate in series [9]: CCCCC(=O)O
As to the kind of experiment: purified protein, by the assay type. The settings on record: other: Msed_0406, 75° C., pH 7.9; 75.0 °C.

Substrate in series [10]: O=C(O)CCCO
As to the kind of experiment: purified protein, by the assay type.

Substrate in series [11]: O=C(O)CCO
The series is described as follows: purified protein, by the assay type. The following applies: other: Msed_0406, 75° C., pH 7.9; 75.0 °C.

The mark [12] stands for this setting: other: Msed_0406, 75° C., pH 7.9, 75.0 °C.

In the case of “Metallosphaera sedula 4-hydroxybutyryl-CoA dehydratase Msed_1321, SEQ ID NO:15, recombinant (Metallosphaera sedula DSM 5348)”, in series [1], the Km turned out to be 150 µM, the Vmax turned out to be 2.2 µmol/min/mg and the turnover number (kcat) stood at 2.1 s⁻¹.

On to “Metallosphaera sedula acetate/propionate synthetase Msed_1353 variant Msed_1353-G424 (Trp424 to Gly, W424G), SEQ ID NO:18 (Metallosphaera sedula DSM 5348; W424G)”, for which, in [2], the Km is 1130 µM, the Vmax amounted to 2.3 µmol/min/mg, the kcat was 2.5 s⁻¹ and the kcat/Km turned out to be 2180 M⁻¹ s⁻¹.

Take `[HH]` [hydrogen]: the solubility in series [3] was 600 µM (≈ 1.21 µg/mL).

As for `O=O` [oxygen], the solubility in [3] was 600 µM (≈ 19.2 µg/mL).

B1: Metallosphaera sedula acyl-CoA synthetase (4-hydroxybutyrate:CoA ligase) Msed_0406, SEQ ID NO:14, recombinant (Metallosphaera sedula DSM 5348) (protein)
chain: MVTVQDFFRKFIEFQNSPNEKSLQEIVKLVGQLDLRRFNWVRDVFEDIHVKERGSKTALIWRDINTGEEAKLSYHELSLMSNRVLSTLRKHGLKKGDVVYLMTKVHPMHWAVFLAVIKGGFVMVPSATNLTVAEMKYRFSDLKPSAIISDSLRASVMEEALGSLKVEKFLIDGKRETWNSLEDESSNAEPEDTRGEDVIINYFTSGTTGMPKRVIHTAVSYPVGSITTASIVGVRESDLHLNLSATGWAKFAWSSFFSPLLVGATVVGINYEGKLDTRRYLGEVENLGVTSFCAPPTAWRQFITLDLDQFRFERLRSVVSAGEPLNPEVIKIWKDKFNLTIRDFYGQTETTAMVGNFPFLKVKPGSMGKPHPLYDIRLLDDEGKEITKPYEVGHITVKLNPRPIGLFLGYSDEKKNMESFREGYYYTGDKAYFDEEGYFYFVGRGDDVIKTSDYRVGPFEVESALLEHPAVAEAAVVGVPDTVRWQLVKAYIVLKKGYMPSKELAEEIREKMKTLLSPYKVPRIIEFVDELPKTISGKIRRVELRKREEEKRKKGEVGQNEYVF
Take B1: the specific activity in series [4] worked out at 15.1 µmol/min/mg; in series [5] (4HB, saturating substrate concentrations), 1.8 µmol/min/mg. Further, in series [5] (reversed-phase HPLC), the “production of 4HB-CoA from 4HB and CoA” value was “confirmed”. In addition, in series [5] (substrate 4HB), the “rate of ligation of CoA to 4HB” value was found to be 1.69 µmol·min/mg. In addition, the Km in series [6] is 2030 µM; in series [7] it was 380 µM; in [8], 320 µM; in series [9], 740 µM; in series [10] (setting [12]), 2000 µM; in series [10] (other: Msed_0406, text), 1900 µM. Further, the Km in series [11] came to 810 µM. In addition, the maximum rate (Vmax) in series [6] came to 6 µmol/min/mg; in series [7], 15.1 µmol/min/mg; in series [8], 7.9 µmol/min/mg; in series [9] it was 5.2 µmol/min/mg; in series [10] (setting [12]) it was 1.7 µmol/min/mg; in series [11], 2.4 µmol/min/mg. The kcat in series [6] was found to be 6.4 s⁻¹; in [7], 16.2 s⁻¹; in series [8] it was 8.4 s⁻¹; in [9], 5.6 s⁻¹; in [10] (setting [12]) it was 1.8 s⁻¹; in series [11], 2.6 s⁻¹. Also, the kcat/Km came out at 3200 M⁻¹ s⁻¹ in series [6]; 43000 M⁻¹ s⁻¹ in series [7]; 26000 M⁻¹ s⁻¹ in series [8]; 7500 M⁻¹ s⁻¹ in series [9]; 910 M⁻¹ s⁻¹ in [10] (setting [12]); 3200 M⁻¹ s⁻¹ in [11].

What is called Km is the concentration of substrate that gives half-maximal velocity. The term Vmax denotes the top rate of the reaction or transport when substrate is in excess. For orientation: kcat means the maximal rate divided by the concentration of active sites. As usually defined, the kcat/Km is the turnover number divided by the Michaelis constant. The solubility is the dissolved amount per volume that the medium holds.
